Holding throughout (settings): protein: recombinant; tags: GST (N-terminal, pGEX-4T-3); blunt
The target of data set [1] is T1, MaSPL44 (UniProt A0A804KAB2 1-473).
T1 sequence: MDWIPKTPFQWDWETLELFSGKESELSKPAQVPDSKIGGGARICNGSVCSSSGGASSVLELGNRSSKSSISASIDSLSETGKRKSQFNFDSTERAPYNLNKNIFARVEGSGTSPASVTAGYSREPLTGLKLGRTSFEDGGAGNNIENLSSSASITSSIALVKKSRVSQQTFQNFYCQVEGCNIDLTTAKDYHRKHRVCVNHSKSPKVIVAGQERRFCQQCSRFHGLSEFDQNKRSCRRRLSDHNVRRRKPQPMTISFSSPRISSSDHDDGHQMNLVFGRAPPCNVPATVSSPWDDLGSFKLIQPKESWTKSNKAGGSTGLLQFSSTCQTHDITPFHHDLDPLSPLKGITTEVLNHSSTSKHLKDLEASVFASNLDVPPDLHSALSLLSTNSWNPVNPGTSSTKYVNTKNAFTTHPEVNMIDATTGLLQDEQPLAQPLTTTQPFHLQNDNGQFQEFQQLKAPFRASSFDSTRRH
The data set can be described thus: EMSA; Chemiluminescent EMSA Kit (Thermo Fisher); buffer, salt, pH and temperature not stated. For orientation: A gel shift assay detects complexes by their altered migration in electrophoresis.

The target in data set [2] is T2, MaSPL5 (UniProt A0A804I0H4 1-393).
T2 sequence: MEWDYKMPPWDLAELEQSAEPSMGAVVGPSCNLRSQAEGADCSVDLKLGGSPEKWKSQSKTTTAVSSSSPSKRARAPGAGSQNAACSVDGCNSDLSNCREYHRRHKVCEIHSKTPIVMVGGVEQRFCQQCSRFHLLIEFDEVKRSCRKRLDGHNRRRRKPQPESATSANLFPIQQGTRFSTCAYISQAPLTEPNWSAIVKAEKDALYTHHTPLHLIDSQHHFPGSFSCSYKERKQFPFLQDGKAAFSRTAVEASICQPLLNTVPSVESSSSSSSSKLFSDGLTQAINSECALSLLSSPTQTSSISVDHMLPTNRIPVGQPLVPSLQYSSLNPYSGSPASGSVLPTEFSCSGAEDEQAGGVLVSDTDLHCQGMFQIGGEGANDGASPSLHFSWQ
Described as above.

Data set [3] concerns the target T3, MaSPL4 (UniProt A0A804HZD8 1-178).
T3 sequence: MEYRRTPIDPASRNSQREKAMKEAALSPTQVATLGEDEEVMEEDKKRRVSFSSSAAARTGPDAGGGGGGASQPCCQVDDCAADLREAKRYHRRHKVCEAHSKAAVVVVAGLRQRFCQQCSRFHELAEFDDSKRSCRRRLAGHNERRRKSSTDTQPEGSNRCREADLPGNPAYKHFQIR
Described as above.

Data set [4] has as its target T1, MaSPL44. The data set can be described thus: competition; unlabeled competitor vs biotin-N1 (EMSA); Chemiluminescent EMSA Kit (Thermo Fisher); buffer, salt, pH and temperature not stated.
The target in data set [5] is T2, MaSPL5. Described as above.
Data set [6] deals with T3, MaSPL4. The description is as above.

B1: MamiR528pro-probe (dsDNA)
DNA 1: GCGCAGTACAGTGCAGTACTAAGATACTACACAAACCACACAATAGAAGTACCACTATC
DNA 2: GATAGTGGTACTTCTATTGTGTGGTTTGTGTAGTATCTTAGTACTGCACTGTACTGCGC
As for B1, the binding result in data set [1], in data set [2] and in data set [3] was “binds” each time.

B2: MamiR528pro-mut-probe (dsDNA)
DNA 1: GCGCAAAAAAGTGCAAAAATAAGATACTACACAAACCACACAATAGAAAAAACACTATC
DNA 2: GATAGTGTTTTTTCTATTGTGTGGTTTGTGTAGTATCTTATTTTTGCACTTTTTTGCGC
On to B2, for which the binding result in data set [4], in data set [5] and in data set [6] was “no binding” each time.

The values above are taken from paper PMC11720309, “Transcriptional regulation of miR528-PPO module by miR156 targeted SPLs orchestrates chilling response in banana”.
